Ends that are not written are not given here.
How the values were obtained:
Type I IGF receptor [1] = target: T1, Type I IGF receptor (UniProt P08069 31-1367); assay: competitive displacement of labelled tracer from IGFR
T1 construct: also called IGF-I RECEPTOR; Insulin-like Growth Factor Receptor
Description: Receptor-Binding Assays. […] This assay employs the purified epitope-tagged receptor (IR-A, IR-B, or IGFR) using a microtiter-plate antibody-capture assay as known in the art. The epitope tag consists of three tandem repeats of the FLAG epitope. Microtiter strip plates (Nunc Maxisorb) were incubated overnight at 4° C. with anti-FLAG IgG (100 μl/well of […] in phosphate-buffered saline). Binding data were analyzed by a single-site heterologous competition binding model. A corresponding microtiter plate antibody assay using the epitope-tagged IGF Type I receptor was employed to assess cross-binding of analogues to this homologous receptor.

Type I IGF receptor [2] = target: T1, Type I IGF receptor; assay: competitive displacement of 125I-IGF-1 from IGFR

B1: [His^A8, Asp^B28, Pro^B29]-SCI (57-mer single-chain insulin analogue, linker GGGPRR) (ligand)
chain: FVNQHLCGSHLVEALYLVCGERGFFYTDPTGGGPRRGIVEQCCHSICSLYQLENYCN
modifications: ends and bridges not checked; cysteine pairing not given here
notes: Made by total chemical synthesis and native ligation
- Kd (Type I IGF receptor [1]): 27.6 nM
- Kd (Type I IGF receptor [2]): 27.6 nM

B2: His^A8, Asp^B10, Asp^B28, Pro^B29 SCI (ligand)
chain: FVNQHLCGSDLVEALYLVCGERGFFYTDPTGGGPRRGIVEQCCHSICSLYQLENYCN
notes: also called SCI (His^A8, Asp^B10, Asp^B28, and Pro^B29); SCI containing the substitution Asp^B10
- Kd (Type I IGF receptor [1]): 9.89 nM

Reference: patent US20110195896A1 (CASE WESTERN RESERVE UNIVERSITY, published 2011)
